The target of the assay is T1, EpCAM on KatoIII cells (human, UniProt P16422 24-314).
T1 sequence (looked up): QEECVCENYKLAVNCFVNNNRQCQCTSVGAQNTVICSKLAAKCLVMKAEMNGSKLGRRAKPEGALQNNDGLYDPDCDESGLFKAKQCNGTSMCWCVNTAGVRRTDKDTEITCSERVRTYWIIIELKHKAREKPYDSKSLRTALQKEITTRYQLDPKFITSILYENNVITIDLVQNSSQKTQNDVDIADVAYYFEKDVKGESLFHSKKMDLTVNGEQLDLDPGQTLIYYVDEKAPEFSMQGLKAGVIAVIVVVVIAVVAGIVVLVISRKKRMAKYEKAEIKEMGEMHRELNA
Put plainly: cell-based or functional assay.

This note sets out measurements from patent US20120244161A1 (published 2012).

B1: EpCAMxCD3 bispecific single chain antibody MT110 (bispecific antibody)
chain: ELVMTQSPSSLTVTAGEKVTMSCKSSQSLLNSGNQKNYLTWYQQKPGQPPKLLIYWASTRESGVPDRFTGSGSGTDFTLTISSVQAEDLAVYYCQNDYSYPLTFGAGTKLEIKGGGGSGGGGSGGGGSEVQLLEQSGAELVRPGTSVKISCKASGYAFTNYWLGWVKQRPGHGLEWIGDIFPGSGNIHYNEKFKGKATLTADKSSSTAYMQLSSLTFEDSAVYFCARLRNWDEPMDYWGQGTTVTVSSGGGGSDVQLVQSGAEVKKPGASVKVSCKASGYTFTRYTMHWVRQAPGQGLEWIGYINPSRGYTNYADSVKGRFTITTDKSTSTAYMELSSLRSEDTATYYCARYYDDHYCLDYWGQGTTVTVSSGEGTSTGSGGSGGSGGADDIVLTQSPATLSLSPGERATLSCRASQSVSYMNWYQQKPGKAPKRWIYDTSKVASGVPARFSGSGSGTDYSLTINSLEAEDAATYYCQQWSSNPLTFGGGTKVEIK
Regarding B1, the “EC50 of CD25 upregulation on CD4+ T lymphocytes, human PBMC with 0.2% KatoIII cells, 40 h, flow cytometry” value turned out to be 3.5 ng/mL; the “EC50 of CD25 upregulation on CD4+ T lymphocytes, human PBMC with 2% KatoIII cells, 40 h, flow cytometry” value worked out at 2.35 ng/mL; the “EC50 of CD25 upregulation on CD4+ T lymphocytes, human PBMC with 10% KatoIII cells, 40 h, flow cytometry” value was 0.8 ng/mL; the “EC50 of CD25 upregulation on CD8+ T lymphocytes, human PBMC with 0.2% KatoIII cells, 40 h, flow cytometry” value amounted to 5.98 ng/mL. Moreover, the “EC50 of CD25 upregulation on CD8+ T lymphocytes, human PBMC with 2% KatoIII cells, 40 h, flow cytometry” value was found to be 0.99 ng/mL and the “EC50 of CD25 upregulation on CD8+ T lymphocytes, human PBMC with 10% KatoIII cells, 40 h, flow cytometry” value was 0.26 ng/mL.
